# In article doi:10.1101/2022.10.14.512215 (bioRxiv, 2022):
# Changes are numbered by the printed parent chain. Where “and” joins values, the source holds several entries; their conditions need not be identical. Equal values may be shown once.
# B1: RIP2K^1-317 (kinase domain of human RIP2, residues 1-317) (domain or fragment)
# chain: MNGEAICSALPTIPYHKLADLRYLSRGASGTVSSARHADWRVQVAVKHLHIHTPLLDSERKDVLREAEILHKARFSYILPILGICNEPEFLGIVTEYMPNGSLNELLHRKTEYPDVAWPLRFRILHEIALGVNYLHNMTPPLLHHDLKTQNILLDNEFHVKIADFGLSKWRMMSLSQSRSSKSAPEGGTIIYMPPENYEPGQKSRASIKHDIYSYAVITWEVLSRKQPFEDVTNPLQIMYSVSQGHRPVINEESLPYDIPHRARMISLIESGWAQNPDERPSFLKCLIELEPVLRTFEEITFLEAVIQLKKTKLQSV
# B2: XIAP BIR2^124-263 (domain or fragment)
# chain: GPRDHFALDRPSETHADYLLRTGQVVDISDTIYPRNPAMYSEEARLKSFQNWPDYAHLTPRELASAGLYYTGIGDQVQCFCCGGKLKNWEPCDRAWSEHRRHFPNCFFVLGRNLNIRSESDAVSSDRNFPNSTNLPRNPSMA
# B3: XIAP BIR2^124-240 (domain or fragment)
# chain: GPRDHFALDRPSETHADYLLRTGQVVDISDTIYPRNPAMYSEEARLKSFQNWPDYAHLTPRELASAGLYYTGIGDQVQCFCCGGKLKNWEPCDRAWSEHRRHFPNCFFVLGRNLNIRSE
# B4: XIAP BIR2AG^124-240 (domain or fragment)
# chain: B3 chain with C81A, C92G
# B5: XIAP BIR2^154-240 (domain or fragment)
# chain: YPRNPAMYSEEARLKSFQNWPDYAHLTPRELASAGLYYTGIGDQVQCFCCGGKLKNWEPCDRAWSEHRRHFPNCFFVLGRNLNIRSE
# B6: XIAP BIR2AG^154-240 (domain or fragment)
# chain: B5 chain with C49A, C60G
# B7: XIAP BIR2^93-240 (domain or fragment)
# chain: GPINGFYLENSATQSTNSGIQNGQYKVENYLGSRDHFALDRPSETHADYLLRTGQVVDISDTIYPRNPAMYSEEARLKSFQNWPDYAHLTPRELASAGLYYTGIGDQVQCFCCGGKLKNWEPCDRAWSEHRRHFPNCFFVLGRNLNIRSE
# B8: XIAP BIR2^93-263 (domain or fragment)
# chain: GPINGFYLENSATQSTNSGIQNGQYKVENYLGSRDHFALDRPSETHADYLLRTGQVVDISDTIYPRNPAMYSEEARLKSFQNWPDYAHLTPRELASAGLYYTGIGDQVQCFCCGGKLKNWEPCDRAWSEHRRHFPNCFFVLGRNLNIRSESDAVSSDRNFPNSTNLPRNPSMA
# Assays:
# [1] = molecular target: the molecule itself; assay: native MS
# [2] = molecular target: RIP2K^1-300 (kinase domain of human RIP2, residues 1-300) (human, UniProt O43353 1-300); assay: MST
# [3] = molecular target: B1; assay: native MS
# [4] = molecular target: B1; assay: NMR translational diffusion
# [5] = molecular target: B1; assay: cryo-EM structure
binding result [2],Binder,stoichiometry N [3],also measured
,B1,,stoichiometry N [1]: 2
binds,B2,,
,B3,1 RIP2K per XIAP BIR2 (2:2) and 2 RIP2K per XIAP BIR2 (2:1),
,B4,1 RIP2K per XIAP BIR2 (2:2),stoichiometry N [4]: 2 RIP2 per BIR2 (1:2 BIR2:RIP2)
,B5,1 RIP2K per XIAP BIR2 (2:2),Kd [2]: 85.6 ± 18.7 nM; stoichiometry N [5]: 2 RIP2K per XIAP BIR2 (2:1)
,B6,2 RIP2K per XIAP BIR2 (2:1) and 1 RIP2K per XIAP BIR2 (2:2),
binds,B7,,
binds,B8,,
